Laboratory results taken from patent US8574882B2, “Thermostable 1,5-anhydroglucitol dehydrogenase, and method for measurement of 1,5-anhydroglucitol by using the same” (Nippon Kayaku Kabushiki Kaisha, priority 2008, dated 2013).
Where a chain is given by its changes, count along the chain named. In names and notes the source's numbering stands. One block for each molecule: values may come before it.

Legend:
[1] = tested on: 1,5-AG dehydrogenase (Ver. 0); assay: Substrate specificity of parent strain-derived 1,5-AG dehydrogenase; type: biochemical, Pseudomonas sp. NK-85001; details: activity for 1,5-AG as 100%; Ver. 0, 40%-saturated ammonium sulfate precipitate fraction
Experimental: (§1) The components other than the crude enzyme solution are mixed and kept at 37° C. for 10 minutes. Then, the crude enzyme solution is added to the reaction solution to initiate reaction. Decrease in absorbance at 600 nm for 1 minute with the temperature kept at 37° C. is determined.
A precipitate fraction of 40%-saturated ammonium sulfate was collected by centrifugation and dissolved in a 50 mM sodium phosphate buffer, pH 7.5.

[2] = Primary screening of variant gene library after heat treatment of microbial cells (DCIP decolorization with 1,5-AG); type: biochemical; details: microbial cells treated at 60° C. for 20 minutes; blue color of DCIP decolorized
Experimental: Approximately 10100 colonies of the variant gene library were randomly picked up using a colony picker (PM-2s, manufactured by Microtec Co., Ltd.) and subjected to primary screening In the primary screening, a 1.2-mL 96-well square deep well plate (manufactured by NALGE NUNC INTERNATIONAL MK.) was used. The colonies were transplanted to 500 μL of an LB liquid medium containing 50 μg/mL ampicillin and cultured (28° C., 900 rpm) overnight in a 96-well square plate shaker (TITRAMAX 100, manufactured by HEIDOLPH). The 96-well square deep well plate was centrifuged at 2000 rpm for 10 minutes to separate microbial cells, which were then treated at −80° C. for 1 hour. The microbial cells were thawed and then treated at 60° C. for 20 minutes. Active variant enzymes were picked up by suspending the microbial cells thus treated at 60° C. by the addition of 200 μL of a 0.1 M potassium phosphate buffer (pH 7.0) containing 0.5% Triton X-100, 30 μL of 6 mM 2,6-dichlorophenolindophenol (DCIP) and 5 μL of 50 mg/mL 1,5-AG. The blue color of DCIP is decolorized for colonies having the enzymatic activity. As a result, it was observed that the blue color of DCIP was decolorized for colonies carrying a 1,5-AG dehydrogenase Ver. […] 0.

[3] = Stability of thermostable 1,5-AG dehydrogenase at heat treatment temperature (rate of residual activity); type: physicochemical; details: crude enzyme solution, water bath 45° C., 10 minutes
Experimental: (§2) The E. coli JM109 containing the gene encoding each thermostable 1,5-AG dehydrogenase obtained in the paragraphs to [4] of EXAMPLE 2 was transplanted to 10 mL of an LB liquid medium containing 50 μg/mL ampicillin and 0.1 mM IPTG and shake-cultured at 30° C. for 16 hours. 10 mL of the shake-culture solution was centrifuged at 10000 rpm for 5 minutes. The culture supernatant was removed, and the pellet was then washed twice with a 0.85% aqueous NaCl solution. These microbial cells were suspended in 1 mL of a 50 mM sodium phosphate buffer (pH 7.5) containing 0.25% Triton X-100. The microbial cells were disrupted using a bead impact-type cell disrupter MINI-BEAD BEATER (30 seconds×4, manufactured by Central Scientific Commerce, Inc.) while cooled in ice. After centrifugation at 15000 rpm for 10 minutes, the supernatant was used as a crude enzyme solution. When the crude enzyme solution was heat-treated, the treatment was performed for 10 minutes in a water bath of 45° C., 50° C., 55° C. or 60° C.
(§3) The enzymatic activity of the 1,5-AG dehydrogenase was calculated by measurement by the same approach as that described in the paragraph (J) of EXAMPLE 1.
(§4) A specific activity that represents the enzymatic activity of the 1,5-AG dehydrogenase per mg of the crude enzyme solution was calculated according to the following equation: Specific activity (U/mg)=enzymatic activity (U/mL)/protein concentration of crude enzyme solution (mg/mL). Moreover, the rate of residual activity was calculated according to the following equation: Rate of residual activity (%)=(specific activity of crude enzyme solution after heat treatment/specific activity of crude enzyme solution before heat treatment)×100.

[4] = 1,5-AG dehydrogenase activity determination of crude enzyme solution (L-sorbose, DCIP, 1-m-PMS, decrease in absorbance at 600 nm); type: biochemical
Experimental: The E. coli JM109 strains transformed with the pTrc-PS15DH vectors confirmed in the paragraph (I) to have the insert fragment were inoculated to 3 mL of an LB medium containing 100 μg/mL ampicillin and cultured at 28° C. for 14 hours. Of this culture solution, a 0.2 mL aliquot was inoculated to 10 mL of an LB medium (containing 100 μg/mL ampicillin). Approximately 3 hours later, the rise of OD600 of the culture solution to 0.4 to 0.7 was confirmed, and 1,5-AG dehydrogenase expression in E. coli was then induced by the addition of 0.1 M IPTG (final concentration: 0.1 mM) to the medium. This culture solution was further cultured overnight at 28° C. and centrifuged at 10000×g for 5 minutes to precipitate cells. The supernatant was removed, and the pellet was then washed twice with a 0.85% aqueous NaCl solution. Cells were precipitated by centrifugation. Then, the microbial cells were suspended in 1 mL of a 50 mM sodium phosphate buffer, pH 7.5. Triton X-100 was added thereto at a concentration of 0.25%, and the microbial cells were disrupted using a bead impact-type cell disrupter MINI-BEAD BEATER (30 seconds×4, manufactured by Central Scientific Commerce, Inc.) while cooled in ice. After centrifugation at 20000×g for 10 minutes, the supernatant was examined as a crude enzyme solution for its 1,5-AG dehydrogenase activity. The composition of the reaction solution is as described below. Since the 1,5-AG dehydrogenase also reacts with L-sorbose as its substrate, L-sorbose was used for convenience instead of 1,5-AG in the enzymatic activity determination.
Composition of Reaction Solution:
as §1
The enzymatic activity can be determined according to the following equation: Enzymatic activity (U/mL)=(Δ600/min×0.6 (mL)×dilution ratio of crude enzyme solution)/(16.3×0.01 (mL)).
as §2, §3, §4
The 1,5-AG dehydrogenase activity was determined based on the method described in EXAMPLE 1, and its specific activity was determined according to the equation described in EXAMPLE 3.

[5] = crude enzyme solution, L-sorbose as substrate, 37° C.

Molecule: O=C(CO)[C@@H](O)[C@H](O)[C@@H](O)CO [L-sorbose]
- Relative activity [1]: 54%

- Relative activity [1]: 0%
Molecule: OC[C@@H](O)[C@H](O)[C@@H](O)CO [Xylitol]

- Relative activity [1]: 0.2%
Molecule: OC[C@H]1O[C@H](O[C@H]2[C@H](O)[C@@H](O)C(O)O[C@@H]2CO)[C@H](O)[C@@H](O)[C@@H]1O (mixture of isomers) [Maltose]

- Relative activity [1]: 100%
Molecule: OC[C@H]1OC[C@H](O)[C@@H](O)[C@@H]1O [1,5-AG, 1,5-anhydroglucitol]

- Relative activity [1]: 0%
Molecule: O=C[C@H](O)[C@@H](O)[C@@H](O)[C@H](O)CO [Galactose]

- Relative activity [1]: 0%
Molecule: O=C[C@H](O)[C@@H](O)[C@H](O)CO [Xylose]

B1: Ver. 1.0: thermostable 1,5-AG dehydrogenase, protein 21) of b101; net vs SEQ ID NO: 4: P50Q (protein)
chain: MEFGGQPDIVIIGSGIGGASIAAGLSASGADILILEAGESLPDRPENRDQHAIFQRGFFRPKEFWYETDGTPFNPGNYYNVGGNSKFYGAVLVRYRREDFEELAHLEGVSPAWPFAYDELEPWYCKAEELFQVRGELGDDPTEPYHSKPYSYPAIRDESPIADLRARLKKAGLHPASLPLGVDIERWLAKAKTPWDAHPNSNDGKMDAETCPLALALKHPNVGLETSARVTKLETGPDGKTIVAVHYVKNGEALVLRPKLVILSAGAVQSAALLLRSGLANRSDQVGRNFMNHNASAVIGFDPRYRNDSVYQKTFGFNDYYLSDGAGGPPLGNVQLLGRVSGAILKSNMRQVPEWFLNRIAGHTIDFYAMSEDLPSPESRVSVDGDRIILHWVRSNWKAHLMLVDKLKSALRAAGFPVVLSRAFDRRTPSHQCGTVRIGDNPATAPLDPYCRAYDHPNLYVVDASFLPTSAAVNPALTIAAQALRVADHLNREVLA
modifications: Pseudomonas sp. NK-85001
- Thermostability compared with 1,5-AG dehydrogenase Ver. 0 [2]: improved thermostability
- Rate of residual activity after 10-minute treatment at 45° C. [3]: 8.3%
- Specific activity [4, 5]: 1.7 U/mg

B2: Ver. 3.0: thermostable 1,5-AG dehydrogenase, protein 19); net vs SEQ ID NO: 4: A37T, P50Q, G362R (protein)
chain: B1 chain with A37T, G362R
modifications: Pseudomonas sp. NK-85001
- Rate of residual activity after 10-minute treatment at 45° C. [3]: 40.0%
- Specific activity [4, 5]: 2.8 U/mg

B3: Ver. 3.1: thermostable 1,5-AG dehydrogenase, protein 18); net vs SEQ ID NO: 4: A37T, P50Q, L164M (protein)
chain: B1 chain with A37T, L164M
modifications: Pseudomonas sp. NK-85001
- Rate of residual activity after 10-minute treatment at 45° C. [3]: 54.0%
- Specific activity [4, 5]: 1.2 U/mg

B4: Ver. 2.0: thermostable 1,5-AG dehydrogenase, SEQ ID NO: 22; net vs SEQ ID NO: 4: Q6H, A37T, P50Q (protein)
chain: B1 chain with Q6H, A37T
modifications: Mutated 1,5-anhydroglucitol dehydrogenase gene
- Rate of residual activity after 10-minute treatment at 45° C. [3]: 31.0%
- Specific activity [4, 5]: 1.4 U/mg
- Specific activity ([4]; purification step: CFE (cell-free extracts)): 4.39 U/mg
- Specific activity ([4]; purification step: ammonium sulfate precipitation): 13.8 U/mg
- Specific activity ([4]; purification step: desalting and concentration): 13.5 U/mg
- Specific activity ([4]; purification step: weak anion-exchange chromatography (DEAE FF)): 13.5 U/mg
